Assay results from publication PMC11615322 (Nature Communications, 2024).

Target: GST-Keap1 (human, UniProt Q14145 1-624)
Assay: pull-down

Sequence of GST-Keap1 (Q14145 whole entry): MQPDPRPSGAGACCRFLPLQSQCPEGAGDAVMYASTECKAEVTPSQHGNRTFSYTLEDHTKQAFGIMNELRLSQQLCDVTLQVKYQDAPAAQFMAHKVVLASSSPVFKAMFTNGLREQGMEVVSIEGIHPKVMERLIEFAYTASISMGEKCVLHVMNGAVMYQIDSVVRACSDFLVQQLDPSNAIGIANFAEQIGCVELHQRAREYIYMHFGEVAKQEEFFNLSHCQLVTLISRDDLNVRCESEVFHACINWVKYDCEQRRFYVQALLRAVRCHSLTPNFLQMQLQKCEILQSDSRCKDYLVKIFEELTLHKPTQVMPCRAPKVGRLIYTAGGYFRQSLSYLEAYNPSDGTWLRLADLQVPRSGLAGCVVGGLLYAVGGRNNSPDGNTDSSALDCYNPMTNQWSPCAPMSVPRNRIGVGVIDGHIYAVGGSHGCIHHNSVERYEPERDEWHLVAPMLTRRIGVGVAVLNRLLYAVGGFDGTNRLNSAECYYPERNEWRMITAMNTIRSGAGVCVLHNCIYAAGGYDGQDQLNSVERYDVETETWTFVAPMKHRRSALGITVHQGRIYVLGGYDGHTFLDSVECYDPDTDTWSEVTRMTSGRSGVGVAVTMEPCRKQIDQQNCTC

binding result: binds
B1: His-SRX (natural protein)
chain: not shown
